The values that follow come from patent publication US20120114665A1.

This test has as its target T1, penta-his-tagged hRANKL (human).
T1 sequence: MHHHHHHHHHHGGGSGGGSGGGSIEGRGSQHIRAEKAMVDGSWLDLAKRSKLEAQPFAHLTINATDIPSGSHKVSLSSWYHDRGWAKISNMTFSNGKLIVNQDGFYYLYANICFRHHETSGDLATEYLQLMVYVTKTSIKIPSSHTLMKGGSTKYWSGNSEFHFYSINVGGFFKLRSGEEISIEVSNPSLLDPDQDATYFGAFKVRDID
Briefly: competition ELISA: 150 pM his-hRANKL pre-mixed with antibody, free RANKL detected on hRANK-hFc plate. On the technique in general: In an ELISA, binding on a coated surface is turned into a signal by an enzyme label.

A word on the IC50: it is the point on the concentration scale where inhibition reaches its midpoint. Read a low IC50 as higher potency.

Sequence of Control: Human anti-hRANKL mAb, SEQ ID NO: 2 and 4 of U.S. Pat. No. 7,364,736 (antibody) (VH): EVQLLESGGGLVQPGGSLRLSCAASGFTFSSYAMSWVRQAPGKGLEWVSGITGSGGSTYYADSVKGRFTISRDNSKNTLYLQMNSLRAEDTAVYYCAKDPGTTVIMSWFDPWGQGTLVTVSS
Sequence of Control: Human anti-hRANKL mAb, SEQ ID NO: 2 and 4 of U.S. Pat. No. 7,364,736 (antibody) (VL): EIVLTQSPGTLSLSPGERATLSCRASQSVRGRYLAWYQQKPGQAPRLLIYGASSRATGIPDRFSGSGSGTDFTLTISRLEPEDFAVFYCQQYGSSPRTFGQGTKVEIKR

In turn, “Control: Human anti-hRANKL mAb, SEQ ID NO: 2 and 4 of U.S. Pat. No. 7,364,736 (antibody)” returned an IC50 of 0.095 nM.
